Assay results as given in patent publication US20080299072A1 (LABORATOIRES SERONO, published 2008).
Values belong to the binder of their own block, whether it stands above or below them.

Assays:
CCR5 [1] = molecular target: T1, CCR5 (UniProt P51681 1-352, limits assumed); test: competition SPA, displacement of 125I-MIP-1α from CCR5 CHO membranes
T1 construct: whole, on cells; L1.2/CCR5 cells for chemotaxis; also called CCR5-expressing CHO membranes; L1.2/CCR5 transfectants
Description: (§1) The assay was carried out on membranes isolated from CHO transfectants expressing CCR1 and CCR5 from Invitrogen® using a scintillation proximity assay (Alouani, 2000). The unlabelled chemokines were prepared in triplicate by serial dilution in the range of 10⁻⁶ to 10⁻¹² M in 50 mM HEPES pH 7.5, containing 1 mM CaCl₂, 5 mM MgCl₂ and 0.5% bovine serum albumin (binding buffer). Wheatgerm scintillation proximity assay beads (Amersham®) were solubilized at 50 mg/ml in PBS, diluted to 10 mg/ml in binding buffer and put at 250 μg/well. Membranes were diluted to 80 μg/ml in binding buffer and put at 2 μg/well in the assay plates. ¹²⁵I-MIP-1α (Amersham®) was put at 0.1 nM/well and finally unlabelled chemokine was added into the plate. The plates were incubated for 3 h at room temperature with agitation and radioactivity was read with a Wallac counter.

CCR5 [2] = molecular target: T1, CCR5; test: competition SPA, displacement of 125I-MIP-1α from CCR5 CHO membranes (FIG. 2)
Description: FIG. 2: Equilibrium competition binding to CCR5. The binding assay was performed by monitoring the displacement of [¹²⁵I]-MIP-1α from CCR5-expressing CHO membranes. A) PEGylated Ser/Cys variants. Added as competitors were: RANTES (□), Met-RANTES (x), S1C-5 kDaPEG-RANTES (▪), S4C-5 kDaPEG-RANTES, S5C-5 kDaPEG-RANTES (□). B) N-terminal PEGylated wt RANTES variants. Added as competitors were RANTES (□), Met-RANTES (x), PEG-2 kDa-RANTES (▴), PEG-5 kDa-RANTES (▾).
as §1

CCR1 [3] = molecular target: T2, CCR1 (UniProt P32246 1-355, limits assumed); test: competition SPA, displacement of 125I-MIP-1α from CCR1 CHO membranes (FIG. 1)
T2 construct: whole, on cells; Membrane preparation of CHO transfectants; also called CCR1-expressing CHO membranes
T2 sequence (looked up): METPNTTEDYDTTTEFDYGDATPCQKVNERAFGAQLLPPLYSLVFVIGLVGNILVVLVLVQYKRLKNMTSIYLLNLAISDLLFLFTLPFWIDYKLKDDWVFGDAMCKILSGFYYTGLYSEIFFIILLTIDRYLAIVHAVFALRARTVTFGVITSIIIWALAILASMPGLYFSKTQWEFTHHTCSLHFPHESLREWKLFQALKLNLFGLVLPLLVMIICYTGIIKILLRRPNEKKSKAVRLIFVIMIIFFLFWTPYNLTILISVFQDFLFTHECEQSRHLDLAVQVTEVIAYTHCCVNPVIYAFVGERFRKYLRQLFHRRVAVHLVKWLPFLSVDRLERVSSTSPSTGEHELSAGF
Description: FIG. 1: Equilibrium competition binding to CCR1. The binding assay was performed by monitoring the displacement of [¹²⁵I]-MIP-1α from CCR1-expressing CHO membranes. A) PEGylated Ser/Cys variants (S1C, S4C). Added as competitors were: RANTES (□), Met-RANTES (X), S1C-5 kDaPEG-RANTES (▪), S4C-5 kDaPEG-RANTES. B) N-terminal PEGylated wt RANTES variants. Added as competitors were: RANTES (□), Met-RANTES (X), PEG-2 kDa-RANTES (▴), PEG-5 kDa-RANTES (▾).
as §1

CCR1 [4] = molecular target: T2, CCR1; test: competition SPA, displacement of 125I-MIP-1α from CCR1 CHO membranes
Description: as §1

T1 sequence (P51681 whole entry): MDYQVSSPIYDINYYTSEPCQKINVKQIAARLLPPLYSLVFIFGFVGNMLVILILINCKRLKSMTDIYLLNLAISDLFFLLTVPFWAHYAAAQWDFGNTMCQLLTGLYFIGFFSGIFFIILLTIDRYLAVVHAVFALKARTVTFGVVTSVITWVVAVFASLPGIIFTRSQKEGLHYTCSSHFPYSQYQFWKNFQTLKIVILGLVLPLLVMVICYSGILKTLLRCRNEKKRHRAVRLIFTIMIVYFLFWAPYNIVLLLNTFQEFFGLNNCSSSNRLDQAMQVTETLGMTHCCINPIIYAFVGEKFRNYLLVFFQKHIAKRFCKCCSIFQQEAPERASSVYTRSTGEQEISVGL

B1: Met-RANTES (ligand)
chain: MSPYSSDTTPCCFAYIARPLPRAHIKEYFYTSGKCSNPAVVFVTRKNRQVCANPEKKWVREYINSLEMS
notes: The build (Met + mature RANTES) comes from the background description and the name
- IC50 (CCR5 [1]): 15.2 nM
- IC50 (CCR5 [2]): 15.5 nM
- IC50 (CCR1 [3]): 72 nM
- IC50 (CCR1 [4]): 73 nM

B3: Mature wildtype (wt) human RANTES (ligand)
chain: SPYSSDTTPCCFAYIARPLPRAHIKEYFYTSGKCSNPAVVFVTRKNRQVCANPEKKWVREYINSLEMS
notes: The mature form was used; also called WT RANTES; CCL5
- IC50 (CCR1 [3]): 69 nM
- IC50 (CCR1 [4]): 23.3 nM

B4: S5C-5 kDaPEG-RANTES (ligand)
chain: SPYSC(mPEG‑MAL 5 kDa)DTTPCCFAYIARPLPRAHIKEYFYTSGKCSNPAVVFVTRKNRQVCANPEKKWVREYINSLEMS
notes: also called S5C-5 kDa-RANTES
- IC50 (CCR5 [1]): 902 nM

B5: S4C-5 kDaPEG-RANTES (ligand)
chain: SPYC(mPEG‑MAL 5 kDa)SDTTPCCFAYIARPLPRAHIKEYFYTSGKCSNPAVVFVTRKNRQVCANPEKKWVREYINSLEMS
notes: This is probably a printing error; also called S4C-5 kDa-RANTES
- IC50 (CCR5 [1]): 40 nM
- IC50 (CCR5 [2]): 45.4 nM
- IC50 (CCR1 [3]): 83 nM
- IC50 (CCR1 [4]): 84 nM

B6: S1C-5 kDaPEG-RANTES (ligand)
chain: C(mPEG‑MAL 5 kDa)PYSSDTTPCCFAYIARPLPRAHIKEYFYTSGKCSNPAVVFVTRKNRQVCANPEKKWVREYINSLEMS
notes: Expressed without a leader; also called S1C-5 kDa-RANTES
- IC50 (CCR5 [1]): 41 nM
- IC50 (CCR5 [2]): 82.5 nM
- IC50 (CCR1 [3]): 272 nM
- IC50 (CCR1 [4]): 167 nM

Other lines, results leading:

- IC50 (CCR1 [3]): 47 nM
- IC50 (CCR1 [4]): 50 nM
B2: PEG-5 kDa-RANTES (ligand)
chain: {mPEG‑ButyrALD 5 kDa}-SPYSSDTTPCCFAYIARPLPRAHIKEYFYTSGKCSNPAVVFVTRKNRQVCANPEKKWVREYINSLEMS
notes: also called N-terminal PEGylated wt RANTES (5 kDa)

- IC50 (CCR1 [3]): 41 nM
- IC50 (CCR1 [4]): 43 nM
B7: PEG-2 kDa-RANTES (ligand)
chain: {mPEG‑ButyrALD 2 kDa}-SPYSSDTTPCCFAYIARPLPRAHIKEYFYTSGKCSNPAVVFVTRKNRQVCANPEKKWVREYINSLEMS
notes: also called N-terminal PEGylated wt RANTES (2 kDa)
